Measured values published in patent US11547674B2, “Protein-polymer hybrid biomaterials” (The Regents of the University of California, priority 2018, dated 2023).

What was measured:
[1] = LDH enzyme kinetics (NADH generation, absorbance at 340 nm); format: biochemical, Bacillus stearothermophilus
Experimental: Enzyme kinetics was measured by absorbance increase at 340 nm in the generation of NADH. All assays were done at 25° C. and in 100 mM triethanolamine hydrochloride buffer following the protocols of Clarke et al. (Clarke, A. R., Wilks, H. M., Barstow, D. A., Atkinson, T., Chia, W. N. & Holbrook, J. J. An Investigation of the Contribution Made by the Carboxylate Group of an Active Site Histidine-Aspartate Couple to Binding and Catalysis in Lactate Dehydrogenase. Biochemistry 27, 1617-1622 (1988)]. Enzyme concentration of 100 nM were mixed with 10 mM NAD+ and 20 mM FBP with varying lactate concentrations for the assay. Km and Kcat were determined using GraphPad Michaelis-Menten curve fit.
Protocols for determining Kcat and Km of LDH were based on previous studies by Clarke et al.^48 Enzyme kinetics were measured by absorbance increases at 340 nm in the generation of NADH. All assays were done at 25° C. and in 100 mM triethanolamine hydrochloride buffer. Enzyme at 100 nM was mixed with 10 mM NAD^+ and 20 mM FBP with varying lactate concentrations. The initial slope of the absorbance vs. time was obtained for a range of lactate concentrations. This initial slope vs. concentration of lactate was plotted in GraphPad Prism and kinetic parameters (Km and kcat) were determined using a non-linear curve fit to the Michaelis-Menten equation.

[2] = Circular dichroism thermostability scan of LDH; format: physicochemical; settings: ˜60° C.
Experimental: The tertiary structure and thermostability of WT and mutant LDH were obtained following the protocol of Molino et al. Jasco 810 spectropolarimeter equipped with Jasco Peltier temperature controller (Jasco, Easton, Md.) were used to measure the far-UV circular dichroism (CD). LDH samples were prepared at a concentration of 0.06 mg/ml in 50 mM potassium phosphate and 100 mM NaCl. Samples were scanned between 200-260 nm at 25 C at scanning speed of 10 nm/min in 0.1 pathlength quartz cells. Thermal unfolding was monitored at ellipticity at 217 nm from 60° C. to 90° C. at a heating rate of 1° C./min.

[3] = 25° C., 100 nM enzyme, 10 mM NAD+, 20 mM FBP, varying lactate

B1: Wt-LDH: thermostable recombinant wild-type lactate dehydrogenase, amino acid sequence from Bacillus stearothermophilus (protein, UniProt P00344 1-317, looked up)
L-lactate dehydrogenase: MKNNGGARVVVIGAGFVGASYVFALMNQGIADEIVLIDANESKAIGDAMDFNHGKVFAPKPVDIWHGDYDDCRDADLVVICAGANQKPGETRLDLVDKNIAIFRSIVESVMASGFQGLFLVATNPVDILTYATWKFSGLPHERVIGSGTILDTARFRFLLGEYFSVAPQNVHAYIIGEHGDTELPVWSQAYIGVMPIRKLVESKGEEAQKDLERIFVNVRDAAYQIIEKKGATYYGIAMGLARVTRAILHNENAILTVSAYLDGLYGERDVYIGVPAVINRNGIREVIEIELNDDEKNRFHHSAATLKSVLARAFTR
[1]
  catalytic activity of LDH: catalytic
[1]; [3]
  Kcat: 8.8 s⁻¹
  Km: 38.5 mM
[2]
  denaturation at the NP reaction temperature: does not denature
